Biological target: Trypanosoma cruzi uridine phosphorylase (Trypanosoma cruzi)
Experiment: SEC

- stoichiometry N: 2
Substance: Trypanosoma cruzi uridine phosphorylase (enzyme)

— PMC3124080
